One experiment has as its target T1, FcγRIIb (human, UniProt P31994 43-217).
T1 construct: extracellular domain; also called FcgRIIb; 2b; not shown: His tag at the C terminus
T1 sequence (looked up): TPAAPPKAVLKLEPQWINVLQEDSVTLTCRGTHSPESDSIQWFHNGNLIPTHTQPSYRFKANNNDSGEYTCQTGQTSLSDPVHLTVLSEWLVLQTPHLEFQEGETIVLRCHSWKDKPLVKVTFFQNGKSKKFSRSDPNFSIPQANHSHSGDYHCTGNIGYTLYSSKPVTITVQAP
Description: SPR (Biacore), FcγR passed over captured antibody; binding amount as % of control GpH7-A5/GpH7-B3/GpL16-k0 (=100). For orientation: SPR reads the build-up and loss of mass on a sensor chip optically.

In experiment [1] the target is T2, FcγRIIa H (human, UniProt P12318 34-217).
T2 construct: extracellular domain; also called FcgRIIa H; 2aH; not shown: His tag at the C terminus
T2 sequence (looked up): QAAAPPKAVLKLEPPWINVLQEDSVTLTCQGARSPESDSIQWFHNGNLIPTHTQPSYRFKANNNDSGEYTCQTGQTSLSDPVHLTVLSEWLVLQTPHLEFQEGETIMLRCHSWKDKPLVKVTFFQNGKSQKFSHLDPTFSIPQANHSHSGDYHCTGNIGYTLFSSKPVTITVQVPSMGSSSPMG
The description is as above.

Experiment [2] has as its target T2, FcγRIIa H. Description: SPR (Biacore); He/Con_2aH divided by He/Con_2b (FcγRIIa H versus FcγRIIb).
Experiment [3] has as its target T3, FcγRIIa R (extracellular domain, His tag at the C terminus) (human, UniProt P12318 34-217).
T3 construct: extracellular domain; Soluble analyte in Biacore; also called FcgRIIa R type; 2aR
T3 sequence (looked up): T2 sequence (looked up) with H134R
In words: SPR (Biacore), relative binding, control GpH7-B3/GpL16-k0 = 100. Here is the method:
Analysis of interaction between objective antibody and the FcγR was carried out using Biacore T100 (GE Healthcare). HBS-EP+ (GE Healthcare) was used as the running buffer, and the measurement temperature was set to 25° C. Chips produced by immobilizing the antigen peptide by the amine coupling method to a Series S Sencor Chip CM5 (GE Healthcare), or alternatively, chips produced by allowing preliminarily biotinylated antigen peptides to interact with and immobilize onto a Series S Sensor Chip SA (certified) (GE Healthcare) were used. Antibodies of interest were captured onto an antigen peptide-immobilized chip, and allowed to interact to each FcγR diluted with running buffer. To regenerate and repeatedly use the chip, the antibodies captured on the chip were washed off by reacting 10 mM glycine-HCl, pH 1.5.

Changes are numbered by the printed parent chain.

B1: GpH7-A5/GpH7-B3 variant Y300_14T/GpL16-k0 (antibody, human IgG1, kappa)
heavy 1: not shown
heavy 2: not shown
light: DIVMTQSPLSLPVTPGEPASISCQASESLVHSNRNTYLHWYLQKPGQSPQLLIYKVSNRFSGVPDRFSGSGSGTDFTLKISRVEAEDVGVYYCSQNTHVPPTFGQGTKVEIERTVAAPSVFIFPPSDEQLKSGTASVVCLLNNFYPREAKVQWKVDNALQSGNSQESVTEQDSKDSTYSLSSTLTLSKADYEKHKVYACEVTHQGLSSPVTKSFNRGEC
notes: He Ab: mutation in the GpH7-B3 H chain only
As for B1, the He/Con_2b with FcγRIIb is 55.6 relative, control = 100. For the same molecule, the He/Con_2aH with FcγRIIa H [1] is 94.1 relative, control = 100. In addition, the “He_2aH/2b (IIaH/IIb)” value with FcγRIIa H [2] was 1.69 ratio.

B2: GpH7-B3 variant T335_15Y/GpL16-k0 (antibody, human IgG1, kappa)
heavy: not shown
light: B1 light
notes: homodimerized; also called Ho Ab
Consider B2, for which the Ho/Con_2aR in experiment [3] was 107 % of control.

B3: GpH7-B3 variant S267_02A/GpL16-k0 (antibody, human IgG1, kappa)
heavy: not shown
light: B1 light
notes: as for B2
Turning to B3, the Ho/Con_2aR in experiment [3] was 160 % of control.

B4: GpH7-B3 variant S267_07I/GpL16-k0 (antibody, human IgG1, kappa)
heavy: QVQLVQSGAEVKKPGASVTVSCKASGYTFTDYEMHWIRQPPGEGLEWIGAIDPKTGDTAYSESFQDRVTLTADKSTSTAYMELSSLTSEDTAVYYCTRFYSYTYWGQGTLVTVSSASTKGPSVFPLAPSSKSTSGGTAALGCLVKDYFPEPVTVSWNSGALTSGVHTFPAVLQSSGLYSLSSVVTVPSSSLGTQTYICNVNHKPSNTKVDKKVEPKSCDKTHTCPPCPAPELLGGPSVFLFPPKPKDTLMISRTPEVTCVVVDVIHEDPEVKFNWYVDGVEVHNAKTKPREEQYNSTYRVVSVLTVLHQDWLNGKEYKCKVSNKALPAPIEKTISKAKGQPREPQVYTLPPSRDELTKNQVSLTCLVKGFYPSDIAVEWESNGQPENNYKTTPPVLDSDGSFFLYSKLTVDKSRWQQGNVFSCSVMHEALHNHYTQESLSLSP
light: B1 light
notes: as for B2
In the case of B4, the Ho/Con_2aR in experiment [3] was 113 % of control.

B5: GpH7-B3 variant L328_06M/GpL16-k0 (antibody, human IgG1, kappa)
heavy: not shown
light: B1 light
notes: as for B2
On to B5, for which, in experiment [3], the Ho/Con_2aR was 124 % of control.

B6: GpH7-B3 variant L328_07I/GpL16-k0 (antibody, human IgG1, kappa)
heavy: not shown
light: B1 light
notes: as for B2
On to B6, for which the Ho/Con_2aR in experiment [3] is 140 % of control.

B7: GpH7-B3 variant H268_18N/GpL16-k0 (antibody, human IgG1, kappa)
heavy: not shown
light: B1 light
notes: as for B2
For B7, the Ho/Con_2aR in experiment [3] is 134 % of control.

B8: GpH7-B3 variant P238_08L/GpL16-k0 (antibody, human IgG1, kappa)
heavy: not shown
light: B1 light
notes: as for B2
With B8, in experiment [3], the Ho/Con_2aR was 148 % of control.

B9: GpH7-B3 variant L328_03V/GpL16-k0 (antibody, human IgG1, kappa)
heavy: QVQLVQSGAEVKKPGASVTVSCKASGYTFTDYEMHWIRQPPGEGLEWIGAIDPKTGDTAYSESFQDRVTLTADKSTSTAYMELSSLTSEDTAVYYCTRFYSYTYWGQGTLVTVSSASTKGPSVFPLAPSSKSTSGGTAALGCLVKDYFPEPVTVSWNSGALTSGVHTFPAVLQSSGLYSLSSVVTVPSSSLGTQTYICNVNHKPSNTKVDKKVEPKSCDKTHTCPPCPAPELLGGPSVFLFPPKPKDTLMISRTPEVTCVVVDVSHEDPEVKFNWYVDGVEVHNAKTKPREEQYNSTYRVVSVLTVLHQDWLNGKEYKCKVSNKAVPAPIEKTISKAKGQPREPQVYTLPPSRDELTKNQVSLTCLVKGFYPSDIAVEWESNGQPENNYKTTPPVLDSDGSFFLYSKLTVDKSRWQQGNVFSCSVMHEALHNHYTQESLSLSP
light: B1 light
notes: as for B2
Regarding B9, the Ho/Con_2aR in experiment [3] is 116 % of control.

B10: GpH7-B3 variant I332_10E/GpL16-k0 (antibody, human IgG1, kappa)
heavy: not shown
light: B1 light
notes: as for B2
Turning to B10, in experiment [3], the Ho/Con_2aR is 123 % of control.

B11: GpH7-B3 variant L328_15Y/GpL16-k0 (antibody, human IgG1, kappa)
heavy: not shown
light: B1 light
notes: as for B2
Take B11: the Ho/Con_2aR in experiment [3] was 157 % of control.

B12: GpH7-B3 variant T335_19Q/GpL16-k0 (antibody, human IgG1, kappa)
heavy: not shown
light: B1 light
notes: as for B2
On to B12, for which the Ho/Con_2aR in experiment [3] was 102 % of control.

B13: GpH7-B3 variant S239_09D/GpL16-k0 (antibody, human IgG1, kappa)
heavy: not shown
light: B1 light
notes: as for B2
Consider B13, for which the Ho/Con_2aR in experiment [3] is 142 % of control.

B14: GpH7-B3 variant K326_16H/GpL16-k0 (antibody, human IgG1, kappa)
heavy: not shown
light: B1 light
notes: as for B2
Turning to B14, the Ho/Con_2aR in experiment [3] was 123 % of control.

B15: GpH7-B3 variant S267_01G/GpL16-k0 (antibody, human IgG1, kappa)
heavy: not shown
light: B1 light
notes: as for B2
As for B15, the Ho/Con_2aR in experiment [3] is 116 % of control.

B16: GpH7-B3 variant G236_09D/GpL16-k0 (antibody, human IgG1, kappa)
heavy: not shown
light: B1 light
notes: as for B2
On to B16, for which the Ho/Con_2aR in experiment [3] is 107 % of control.

B17: GpH7-B3 variant T335_09D/GpL16-k0 (antibody, human IgG1, kappa)
heavy: not shown
light: B1 light
notes: as for B2
As to B17, the Ho/Con_2aR in experiment [3] is 113 % of control.

B18: GpH7-B3 variant L328_04F/GpL16-k0 (antibody, human IgG1, kappa)
heavy: not shown
light: B1 light
notes: as for B2
Turning to B18, in experiment [3], the Ho/Con_2aR was 145 % of control.

B19: GpH7-B3 variant T335_04F/GpL16-k0 (antibody, human IgG1, kappa)
heavy: not shown
light: B1 light
notes: as for B2
Turning to B19, the Ho/Con_2aR in experiment [3] is 108 % of control.

B20: GpH7-B3 variant I332_15Y/GpL16-k0 (antibody, human IgG1, kappa)
heavy: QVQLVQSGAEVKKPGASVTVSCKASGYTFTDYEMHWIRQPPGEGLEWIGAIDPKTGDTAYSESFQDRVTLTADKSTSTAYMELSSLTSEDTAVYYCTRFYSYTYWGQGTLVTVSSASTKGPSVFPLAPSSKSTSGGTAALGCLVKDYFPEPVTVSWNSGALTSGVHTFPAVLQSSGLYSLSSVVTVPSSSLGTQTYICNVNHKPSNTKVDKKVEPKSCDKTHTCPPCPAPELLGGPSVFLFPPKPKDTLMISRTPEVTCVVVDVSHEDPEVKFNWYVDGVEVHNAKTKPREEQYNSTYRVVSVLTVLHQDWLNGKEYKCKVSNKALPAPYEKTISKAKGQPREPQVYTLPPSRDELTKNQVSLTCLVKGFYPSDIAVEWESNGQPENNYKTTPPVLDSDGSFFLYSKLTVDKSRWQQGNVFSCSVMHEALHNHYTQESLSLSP
light: B1 light
notes: as for B2
Take B20: in experiment [3], the Ho/Con_2aR was 111 % of control.

B21: GpH7-B3 variant G236_10E/GpL16-k0 (antibody, human IgG1, kappa)
heavy: not shown
light: B1 light
notes: as for B2
Take B21: in experiment [3], the Ho/Con_2aR is 140 % of control.

B22: GpH7-B3 variant K334_18N/GpL16-k0 (antibody, human IgG1, kappa)
heavy: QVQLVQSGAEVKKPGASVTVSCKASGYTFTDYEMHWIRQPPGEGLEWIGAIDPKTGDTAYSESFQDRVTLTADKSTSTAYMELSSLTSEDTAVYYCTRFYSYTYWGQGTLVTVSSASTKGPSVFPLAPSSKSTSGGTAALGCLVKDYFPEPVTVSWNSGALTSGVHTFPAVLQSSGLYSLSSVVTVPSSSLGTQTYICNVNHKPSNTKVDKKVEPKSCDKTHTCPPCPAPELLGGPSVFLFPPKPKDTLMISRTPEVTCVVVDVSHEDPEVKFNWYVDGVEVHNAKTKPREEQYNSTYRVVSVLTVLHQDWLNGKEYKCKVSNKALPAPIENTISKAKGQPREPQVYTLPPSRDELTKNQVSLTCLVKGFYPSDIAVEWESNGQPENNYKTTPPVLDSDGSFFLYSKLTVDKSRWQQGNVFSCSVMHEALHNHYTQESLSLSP
light: B1 light
notes: as for B2
Turning to B22, in experiment [3], the Ho/Con_2aR is 113 % of control.

B23: GpH7-B3 variant K326_09D/GpL16-k0 (antibody, human IgG1, kappa)
heavy: not shown
light: B1 light
notes: as for B2
Turning to B23, in experiment [3], the Ho/Con_2aR was 158 % of control.

B24: GpH7-B3 variant K326_10E/GpL16-k0 (antibody, human IgG1, kappa)
heavy: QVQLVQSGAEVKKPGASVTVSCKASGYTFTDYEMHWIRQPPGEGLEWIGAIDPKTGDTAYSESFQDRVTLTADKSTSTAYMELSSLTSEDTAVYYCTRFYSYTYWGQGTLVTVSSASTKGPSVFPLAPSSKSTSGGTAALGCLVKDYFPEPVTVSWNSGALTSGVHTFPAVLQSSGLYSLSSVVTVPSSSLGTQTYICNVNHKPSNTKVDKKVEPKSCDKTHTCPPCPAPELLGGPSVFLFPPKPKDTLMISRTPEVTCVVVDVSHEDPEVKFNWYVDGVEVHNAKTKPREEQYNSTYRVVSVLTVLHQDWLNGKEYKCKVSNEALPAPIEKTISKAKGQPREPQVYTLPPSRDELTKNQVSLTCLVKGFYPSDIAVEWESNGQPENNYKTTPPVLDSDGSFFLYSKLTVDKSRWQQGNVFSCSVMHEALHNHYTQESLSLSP
light: B1 light
notes: as for B2
B24: in experiment [3], the Ho/Con_2aR is 156 % of control.

B25: GpH7-B3 variant H268_09D/GpL16-k0 (antibody, human IgG1, kappa)
heavy: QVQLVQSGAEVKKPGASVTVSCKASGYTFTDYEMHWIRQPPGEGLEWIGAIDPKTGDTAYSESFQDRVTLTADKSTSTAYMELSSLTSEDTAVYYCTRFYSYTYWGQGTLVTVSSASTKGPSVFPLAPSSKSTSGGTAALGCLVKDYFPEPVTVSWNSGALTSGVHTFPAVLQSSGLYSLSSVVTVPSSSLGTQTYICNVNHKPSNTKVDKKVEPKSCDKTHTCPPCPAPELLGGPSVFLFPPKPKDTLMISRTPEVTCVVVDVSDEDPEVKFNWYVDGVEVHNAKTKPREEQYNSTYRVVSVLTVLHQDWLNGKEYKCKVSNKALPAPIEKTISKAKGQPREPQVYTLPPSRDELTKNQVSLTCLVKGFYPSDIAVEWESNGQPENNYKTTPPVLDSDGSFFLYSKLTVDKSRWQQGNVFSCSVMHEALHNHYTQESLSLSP
light: B1 light
notes: as for B2
Regarding B25, the Ho/Con_2aR in experiment [3] is 157 % of control.

B26: GpH7-B3 variant T335_06M/GpL16-k0 (antibody, human IgG1, kappa)
heavy: not shown
light: B1 light
notes: as for B2
Take B26: in experiment [3], the Ho/Con_2aR is 107 % of control.

B27: GpH7-B3 variant T335_16H/GpL16-k0 (antibody, human IgG1, kappa)
heavy: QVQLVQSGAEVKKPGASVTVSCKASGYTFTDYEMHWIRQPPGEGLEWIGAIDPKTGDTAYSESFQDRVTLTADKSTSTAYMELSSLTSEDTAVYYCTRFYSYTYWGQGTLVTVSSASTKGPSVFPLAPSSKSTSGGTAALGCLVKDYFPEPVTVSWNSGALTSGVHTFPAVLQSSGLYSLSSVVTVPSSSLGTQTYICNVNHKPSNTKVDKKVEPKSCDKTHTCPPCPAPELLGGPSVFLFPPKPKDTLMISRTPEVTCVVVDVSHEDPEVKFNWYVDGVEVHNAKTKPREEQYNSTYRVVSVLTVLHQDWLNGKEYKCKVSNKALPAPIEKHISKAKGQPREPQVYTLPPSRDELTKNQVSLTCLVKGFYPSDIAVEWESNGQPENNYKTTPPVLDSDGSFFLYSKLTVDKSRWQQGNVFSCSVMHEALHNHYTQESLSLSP
light: B1 light
notes: as for B2
Take B27: in experiment [3], the Ho/Con_2aR is 102 % of control.

B28: GpH7-B3 variant K334_07I/GpL16-k0 (antibody, human IgG1, kappa)
heavy: not shown
light: B1 light
notes: as for B2
For B28, the Ho/Con_2aR in experiment [3] is 121 % of control.

B29: GpH7-B3 variant K326_19Q/GpL16-k0 (antibody, human IgG1, kappa)
heavy: not shown
light: B1 light
notes: as for B2
On to B29, for which, in experiment [3], the Ho/Con_2aR was 137 % of control.

B30: GpH7-B3 variant T335_18N/GpL16-k0 (antibody, human IgG1, kappa)
heavy: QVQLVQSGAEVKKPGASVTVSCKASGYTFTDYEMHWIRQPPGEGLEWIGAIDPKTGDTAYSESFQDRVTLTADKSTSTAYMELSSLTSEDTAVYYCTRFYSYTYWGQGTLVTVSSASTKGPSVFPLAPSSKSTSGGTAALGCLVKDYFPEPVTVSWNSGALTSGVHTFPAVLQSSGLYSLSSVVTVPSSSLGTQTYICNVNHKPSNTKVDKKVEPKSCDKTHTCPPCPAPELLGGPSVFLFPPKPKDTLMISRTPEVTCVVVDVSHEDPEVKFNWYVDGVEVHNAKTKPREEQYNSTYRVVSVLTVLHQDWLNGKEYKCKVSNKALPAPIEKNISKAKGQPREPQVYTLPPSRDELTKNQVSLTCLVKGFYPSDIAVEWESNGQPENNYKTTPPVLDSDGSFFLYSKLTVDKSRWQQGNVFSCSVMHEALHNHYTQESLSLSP
light: B1 light
notes: as for B2
Turning to B30, the Ho/Con_2aR in experiment [3] was 100 % of control.

B31: GpH7-B3 variant H268_10E/GpL16-k0 (antibody, human IgG1, kappa)
heavy: not shown
light: B1 light
notes: as for B2
For the molecule B31, in experiment [3], the Ho/Con_2aR was 154 % of control.

B32: GpH7-B3 variant K334_15Y/GpL16-k0 (antibody, human IgG1, kappa)
heavy: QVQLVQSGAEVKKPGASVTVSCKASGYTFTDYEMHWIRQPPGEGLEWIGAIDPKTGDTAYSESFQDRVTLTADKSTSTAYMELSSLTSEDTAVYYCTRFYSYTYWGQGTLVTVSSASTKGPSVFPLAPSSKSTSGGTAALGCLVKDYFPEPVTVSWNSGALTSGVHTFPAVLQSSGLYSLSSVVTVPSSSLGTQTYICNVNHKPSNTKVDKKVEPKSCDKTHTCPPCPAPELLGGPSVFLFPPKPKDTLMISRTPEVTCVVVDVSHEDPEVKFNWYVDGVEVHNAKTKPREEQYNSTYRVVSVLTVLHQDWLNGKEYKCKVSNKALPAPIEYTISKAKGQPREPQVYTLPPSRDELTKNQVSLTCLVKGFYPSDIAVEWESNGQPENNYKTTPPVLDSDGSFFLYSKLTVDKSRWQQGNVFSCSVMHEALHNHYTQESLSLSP
light: B1 light
notes: as for B2
B32: in experiment [3], the Ho/Con_2aR is 112 % of control.

B33: GpH7-B3 variant S239_01G/GpL16-k0 (antibody, human IgG1, kappa)
heavy: not shown
light: B1 light
notes: as for B2
Consider B33, for which, in experiment [3], the Ho/Con_2aR was 132 % of control.

B34: GpH7-B3 variant K334_03V/GpL16-k0 (antibody, human IgG1, kappa)
heavy: not shown
light: B1 light
notes: as for B2
Turning to B34, in experiment [3], the Ho/Con_2aR is 123 % of control.

B35: GpH7-B3 variant S337_14T/GpL16-k0 (antibody, human IgG1, kappa)
heavy: not shown
light: B1 light
notes: as for B2
With B35, the Ho/Con_2aR in experiment [3] is 110 % of control.

B36: GpH7-B3 variant I332_04F/GpL16-k0 (antibody, human IgG1, kappa)
heavy: not shown
light: B1 light
notes: as for B2
In the case of B36, in experiment [3], the Ho/Con_2aR is 109 % of control.

B37: GpH7-B3 variant K326_06M/GpL16-k0 (antibody, human IgG1, kappa)
heavy: not shown
light: B1 light
notes: as for B2
On to B37, for which the Ho/Con_2aR in experiment [3] is 143 % of control.

B38: GpH7-B3 variant I332_09D/GpL16-k0 (antibody, human IgG1, kappa)
heavy: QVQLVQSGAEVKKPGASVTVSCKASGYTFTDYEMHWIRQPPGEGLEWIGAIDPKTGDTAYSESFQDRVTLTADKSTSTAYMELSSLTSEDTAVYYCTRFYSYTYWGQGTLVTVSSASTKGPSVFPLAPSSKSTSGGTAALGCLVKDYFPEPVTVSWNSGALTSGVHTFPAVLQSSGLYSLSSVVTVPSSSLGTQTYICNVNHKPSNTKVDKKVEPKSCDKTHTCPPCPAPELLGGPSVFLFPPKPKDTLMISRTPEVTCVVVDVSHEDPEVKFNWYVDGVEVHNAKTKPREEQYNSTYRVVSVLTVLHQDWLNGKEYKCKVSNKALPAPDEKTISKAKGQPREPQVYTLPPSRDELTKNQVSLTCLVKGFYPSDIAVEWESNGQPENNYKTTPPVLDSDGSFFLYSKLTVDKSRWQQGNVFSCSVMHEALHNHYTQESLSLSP
light: B1 light
notes: as for B2
Regarding B38, the Ho/Con_2aR in experiment [3] is 127 % of control.

B39: GpH7-B3 variant H268_13S/GpL16-k0 (antibody, human IgG1, kappa)
heavy: not shown
light: B1 light
notes: as for B2
Regarding B39, the Ho/Con_2aR in experiment [3] was 135 % of control.

B40: GpH7-B3 variant T335_08L/GpL16-k0 (antibody, human IgG1, kappa)
heavy: not shown
light: B1 light
notes: as for B2
As for B40, the Ho/Con_2aR in experiment [3] was 108 % of control.

B41: GpH7-B3 variant K326_14T/GpL16-k0 (antibody, human IgG1, kappa)
heavy: not shown
light: B1 light
notes: as for B2
B41: in experiment [3], the Ho/Con_2aR was 141 % of control.

B42: GpH7-B3 variant K334_14T/GpL16-k0 (antibody, human IgG1, kappa)
heavy: not shown
light: B1 light
notes: as for B2
Turning to B42, in experiment [3], the Ho/Con_2aR was 117 % of control.

B43: GpH7-B3 variant K334_16H/GpL16-k0 (antibody, human IgG1, kappa)
heavy: not shown
light: B1 light
notes: as for B2
Take B43: in experiment [3], the Ho/Con_2aR is 111 % of control.

B44: GpH7-B3 variant P271_01G/GpL16-k0 (antibody, human IgG1, kappa)
heavy: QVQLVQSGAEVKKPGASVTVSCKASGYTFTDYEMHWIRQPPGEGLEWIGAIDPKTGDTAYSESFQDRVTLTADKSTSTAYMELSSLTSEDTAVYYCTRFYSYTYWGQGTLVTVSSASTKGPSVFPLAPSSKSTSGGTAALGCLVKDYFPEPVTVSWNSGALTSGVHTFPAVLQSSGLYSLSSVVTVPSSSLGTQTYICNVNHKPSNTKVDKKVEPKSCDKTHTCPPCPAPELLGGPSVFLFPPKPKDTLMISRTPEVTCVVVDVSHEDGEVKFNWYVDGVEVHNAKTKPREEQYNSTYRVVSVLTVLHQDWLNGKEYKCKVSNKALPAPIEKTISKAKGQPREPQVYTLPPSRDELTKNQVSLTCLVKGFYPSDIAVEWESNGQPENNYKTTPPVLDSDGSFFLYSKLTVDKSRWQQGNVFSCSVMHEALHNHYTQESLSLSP
light: B1 light
notes: as for B2
As to B44, the Ho/Con_2aR in experiment [3] is 150 % of control.

The record behind these values is patent publication US20150344570A1 (published 2015).
